Where a chain is given by its changes, count along the chain named. Each block holds one binder with its values, some of them ahead of it.
Columns and labels:
[1] = target: G2-Rituximab (galactosylated afucosylated glycoform of rituximab) (human); assay: SPR (Biacore T200), 1:1 Langmuir fit
[2] = target: G2-Rituximab (galactosylated afucosylated glycoform of rituximab) (human); assay: flow cytometry of yeast displaying C11, stained with IgG1 G2 (Alexa647) and IgG1 G2F (FITC)
[3] = target: G2-Rituximab (galactosylated afucosylated glycoform of rituximab) (human); assay: SPR; drawn table, KD (G2)
[4] = target: G2F-Rituximab (galactosylated fucosylated glycoform of rituximab) (human); assay: SPR (Biacore T200), 1:1 Langmuir fit
[5] = target: G2-Rituximab (galactosylated afucosylated glycoform of rituximab) (human); assay: SPR, 1:1 Langmuir global kinetic fit, 1024 to 32 nM in 2-fold steps

B3: E2 (VHH, not shown: small tags and cut ends)
VHH: QVQLQESGGGLVQAGGSLRLSCAASSYISRYHTMGWYRQAPGKERSFVAGITWGGLTYYADSVKGRFTVSRDNAKNTVYLQMNSLKPEDTAVYYCAVDGGTRADPYHYYWGQGTQVTVSS
Kd [3]: 4740 nM

B4: D3 (VHH, not shown: small tags and cut ends)
VHH: QVQLQESGGGLVQAGGSLRLSCAASGNISADRYMGWYRQAPGKEREFVAAIGYGGTTYYADSVKGRFTISRDNAKNTVYLQMNSLKPEDTAVYYCAVVDGAHSRHRYWGQGTQVTVSS
Kd [4]: 1900 nM | Kd [1]: 323 nM | Kd [5]: 353 nM

More lines, now with the values ahead:

Kd [1]: 22800 nM | number printed in the lower right quadrant (IgG1 G2 Alexa647 positive, IgG1 G2F FITC negative) [2]: 4
B1: C11 (VHH, not shown: small tags and cut ends)
VHH: B3 VHH with S26G, S46E, L56S, V69I, R102Y

Kd [3]: 2480 nM
B2: E4 (VHH, not shown: small tags and cut ends)
VHH: B3 VHH with S26P, S46E, G50A, L56S, V69I, R102Y

Reference: patent US20240150494A1
